According to patent US20250230242A1, “PHARMACEUTICAL COMPOSITION OF ANTI-TIM-3 ANTIBODY AND HYPOMETHYLATING AGENT” (NANJING SHUNXIN PHARMACEUTICALS CO., LTD. OF CHIATAI …, priority 2022, published 2025):
Blank lines part the entries; values can stand above or below the molecule they belong to.

Assays:
[1] = biological target: T1, CHO-S-HuTIM-3 cells highly expressing human TIM-3 (Homo sapiens, UniProt Q8TDQ0); test: Binding to cells highly expressing human TIM-3 (cell ELISA)
T1 construct: expressed in transfected cells; host or cells: CHO-S
Method: The human TIM-3 gene was transfected into CHO-S cells, and the cells were incubated in an incubator at 37° C. with 5% CO2 using a Dynamis AGT medium (containing 4 mM glutamic acid and 3 μg/mL Puromycin) to give CHO-S-HuTIM-3 cells. […] After the reaction was stopped with H2SO4, the OD value was measured at a wavelength of 450 nm using a full-function microplate reader Synergy H4. The binding EC50 was calculated based on the OD value.

[2] = system: CHO-S-HuTIM-3 cells; test: ADCC against CHO-S-HuTIM-3 cells; assay type: cell-based; conditions: 10 or 100 μg/mL, effector cells PBMC, FIG. 3
Method: (§1) After the reaction was completed, the mixture was centrifuged, and the supernatant was collected and measured for fluorescence values at 490 nm as excitation wavelength and 515 nm as emission wavelength. The cells were lysed directly with 0.1% Triton X-100 and centrifuged, and then the supernatant was collected to determine the total fluorescence value. The lysis rate (%) was calculated based on the fluorescence value.

[3] = system: CHO-S-HuTIM-3 cells; test: CDC against CHO-S-HuTIM-3 cells; assay type: cell-based; conditions: 10 or 100 μg/mL, 10% human serum, FIG. 4
Method: (§2) CHO-S-HuTIM-3 cells and Daudi cells (Shanghai Cell Bank of Chinese Academy of Sciences) were inoculated into a 96-well plate. […] Finally, CCK-8 reagent (Dojindo Laboratories) was added and reacted for 4 h. The OD value was measured at a wavelength of 450 nm using a microplate reader, and the lysis rate (%) was calculated.

[4] = system: Daudi cells; test: CDC against Daudi cells; assay type: cell-based; conditions: 10 or 100 μg/mL, 10% human serum, FIG. 4
Method: as §2

[5] = system: Daudi cells; test: ADCC against Daudi cells; assay type: cell-based; conditions: 1 or 10 μg/mL, effector cells PBMC, FIG. 3
Method: as §1

[6] = biological target: T2, human TIM-3 on CHO-S-HuTIM-3 cells (human, UniProt Q8TDQ0 22-301); test: cell ELISA on CHO-S-HuTIM-3 cells, anti-human kappa-HRP
T2 construct: whole, on cells; Human TIM-3 gene transfected into CHO-S cells; also called CHO-S-HuTIM-3 cells highly expressing human TIM-3

[7] = biological target: T3, human TIM-3 recombinant protein (R&D) (human, UniProt Q8TDQ0 22-200); test: ELISA, human TIM-3 coated, h50B5 titrated, anti-human kappa-HRP
T3 construct: Bought recombinant protein; also called human TIM-3 protein

[8] = biological target: T4, cynomolgus monkey TIM-3 recombinant protein (Acro) (cynomolgus monkey, UniProt A0A2K5U3G7 22-193); test: ELISA, h50B5 coated at 2 µg/mL, cynomolgus TIM-3 titrated, Anti-His HRP
T4 construct: Bought recombinant protein; His tag implied only by the Anti-His HRP detection; also called cynomolgus monkey TIM-3 protein
T4 sequence: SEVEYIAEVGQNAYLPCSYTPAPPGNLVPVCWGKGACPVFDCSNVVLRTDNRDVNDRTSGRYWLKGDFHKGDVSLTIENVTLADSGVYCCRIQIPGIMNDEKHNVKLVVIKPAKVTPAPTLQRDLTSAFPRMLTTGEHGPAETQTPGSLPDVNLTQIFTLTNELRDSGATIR

Molecule: Rituxan®: positive control for ADCC and CDC with Daudi cells as target cells
CDC against Daudi cells [4]: exhibited significant CDC
ADCC against Daudi cells [5]: exhibited significant ADCC

B1: anti-TIM-3 antibody TSR022 (antibody, human IgG4 S228P, kappa, V domains shown)
VH: EVQLLESGGGLVQPGGSLRLSCAAASGFTFSSYDMSWVRQAPGKGLDWVSTISGGGTYTYYQDSVKGRFTISRDNSKNTLYLQMNSLRAEDTAVYYCASMDYWGQGTTVTVSS
VL: DIQMTQSPSSLSASVGDRVTITCRASQSIRRYLNWYHQKPGKAPKLLIYGASTLQSGVPSRFSGSGSGTDFTLTISSLQPEDFAVYYCQQSHSAPLTFGGGTKVEIKR
notes: Benchmark antibody, prepared in the same way as h50B5
EC50 [6]: 6.82 µg/mL

The next lines start with results.

EC50 of binding to CHO-S-HuTIM-3 cells ([1]; FIG. 1): 6.8155 ± 0.1662 µg/mL
maximum binding Emax (OD450), CHO-S-HuTIM-3 cells ([1]; FIG. 1, OD450): 0.26±0.05
Molecule: TSR022: anti-TIM-3 antibody used as benchmark, heavy chain SEQ ID NO: 22, light chain SEQ ID NO: 23 [reference compound]
ADCC against CHO-S-HuTIM-3 cells [2]: did not show significant ADCC
CDC against CHO-S-HuTIM-3 cells [3]: did not show significant CDC

EC50 [7]: 0.291 µg/mL
EC50 [6]: 1.46 µg/mL
EC50 [8]: 1.64 µg/mL
B2: humanized anti-TIM-3 antibody h50B5 (antibody, human IgG4 S228P, kappa, V domains shown)
VH: QVQLVQSGAEVKKPGASVKVSCKASGYSFTGYTINWVRQAPGQGLEWMGLFNPYNGGTTYAQKFQGRVTMTVDKSTSTVYMELSSLRSEDTAVYYCARRYYGYDAMDYWGQGTLVTVSS
VL: DIQMTQSPSSLSASVGDRVTITCKSSQSVLYSSNQKNHLAWYQQKPGKAPKLLIYWASTRESGVPSRFSGSGSGTDFTLTISSLQPEDFATYYCHQYLSSYTFGQGTKLEIKR
notes: Humanized from mouse mAb 50B5 by CDR grafting; human IgG4 heavy chain constant region and human light chain constant region
